Assay results taken from publication doi:10.1101/2023.04.30.538836.

Target: PlsB from Themomonas haemolytica (Themomonas haemolytica)
Assay: cryo-EM structure

PlsB from Themomonas haemolytica (enzyme)
stoichiometry N: 2
